Article doi:10.1101/2021.03.23.436655

Target: fluorescent tagged eIF4E-3 (Drosophila melanogaster)
Assay: FRET or BRET

B1: fluorescent tagged Me31B (FRET partner of eIF4E-3) (natural protein)
chain: MMTEKLNSGHTNLTSKGIINDLQIAGNTSDDMGWKSKLKLPPKDNRFKTTDVTDTRGNEFEEFCLKRELLMGIFEKGWERPSPIQEAAIPIALSGKDVLARAKNGTGKTGAYCIPVLEQIDPTKDYIQALVMVPTRELALQTSQICIELAKHLDIRVMVTTGGTILKDDILRIYQKVQLIIATPGRILDLMDKKVADMSHCRILVLDEADKLLSLDFQGMLDHVILKLPKDPQILLFSATFPLTVKNFMEKHLREPYEINLMEELTLKGVTQYYAFVQERQKVHCLNTLFSKLQINQSIIFCNSTQRVELLAKKITELGYCCYYIHAKMAQAHRNRVFHDFRQGLCRNLVCSDLFTRGIDVQAVNVVINFDFPRMAETYLHRIGRSGRFGHLGIAINLITYEDRFDLHRIEKELGTEIKPIPKVIDPALYVANVGASVGDTCNNSDLNNSANEEGNVSK
In the case of B1, the FRET efficiency is reported as 25%.
